One substance from PMC9289625 can be followed below.

The series concerns His:paALKBH5-like (Gypsy_Pa_2799 ORF2) (Phalaenopsis aphrodite). Description: EMSA. The conditions noted are these: EMSA: 10 mM Tris-HCl pH 8.0, 100 mM NaCl, 50% glycerol, 1 U RiboLock, 30 min at 4 C; Northwestern: 10 mM Tris-HCl pH 7.5, 1 mM EDTA, 0.1 M NaCl, 0.05% Triton …. (In general: A gel shift assay detects complexes by their altered migration in electrophoresis.)

In the case of AMV RNA 3 5'UTR transcript, the Kd amounted to 210 nM.

As a reminder, the Kd is a measure of binding affinity in units of concentration. High values mean lower affinity, low ones higher affinity.
